Test results from PMC7949077.

Columns and labels:
Assay in all cases: SPR
[1] = tested on: La (lupus antigen, SSB);HuR (ELAVL1); conditions: equimolar La and HuR, same total protein; 1:1 fit; SPR: HBS-EP buffer, Biacore T200 SA chip, 1:1 fit. UV crosslinking/EMSA: 2x RNA-binding buffer listed as 5 mM HEPES, 25 mM KCl, 2 mM MgCl2, 2 mM DTT, 0.1 mM …
La (lupus antigen, SSB) = conditions: SPR: HBS-EP buffer, Biacore T200 SA chip, 1:1 fit. UV crosslinking/EMSA: 2x RNA-binding buffer listed as 5 mM HEPES, 25 mM KCl, 2 mM MgCl2, 2 mM DTT, 0.1 mM …
HuR (ELAVL1) = conditions: HuR alone; SPR: HBS-EP buffer, Biacore T200 SA chip, 1:1 fit. UV crosslinking/EMSA: 2x RNA-binding buffer listed as 5 mM HEPES, 25 mM KCl, 2 mM MgCl2, 2 mM DTT, 0.1 mM …

PDCD4 3'UTR full length
Kd [1]: 10.5 nM
Kd (La (lupus antigen, SSB); La alone, first experiment): 27 nM
Kd (La (lupus antigen, SSB); La alone, second experiment): 22 nM
Kd (La (lupus antigen, SSB); equimolar mix with HuR triple mutant (non-binding), same total protein): 27.5 nM
Kd (HuR (ELAVL1)): 42.7 nM
